Measured values from US20160024196A1 (Amgen, published 2016).

Columns and labels:
murine SFRP5 [1] = biological target: T1, murine SFRP5 (mouse, UniProt Q9WU66 22-314, limits assumed); assay: kinetics; method not stated (Table 12, repeats Table 8)
T1 construct: also called mouse SFRP5; muSFRP5
T1 sequence: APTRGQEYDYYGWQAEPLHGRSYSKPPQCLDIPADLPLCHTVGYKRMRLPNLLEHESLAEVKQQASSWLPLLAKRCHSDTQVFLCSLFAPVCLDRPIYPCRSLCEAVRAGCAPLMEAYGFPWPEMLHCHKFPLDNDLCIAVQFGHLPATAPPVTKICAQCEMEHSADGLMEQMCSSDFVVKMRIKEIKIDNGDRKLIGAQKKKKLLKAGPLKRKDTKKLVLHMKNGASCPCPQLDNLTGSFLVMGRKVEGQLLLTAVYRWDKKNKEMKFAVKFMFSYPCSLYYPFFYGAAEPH

murine SFRP5 [2] = biological target: T1, murine SFRP5; assay: kinetics; method and SFRP5 construct not stated (Table 8)

- Kd (murine SFRP5 [1]): 0.658 nM
- koff (murine SFRP5 [1]): 7.36e-05 s⁻¹
- kon (murine SFRP5 [1]): 112000 M⁻¹ s⁻¹
- Kd (murine SFRP5 [2]): 0.658 nM
- koff (murine SFRP5 [2]): 7.36e-05 s⁻¹
- kon (murine SFRP5 [2]): 112000 M⁻¹ s⁻¹
B1: anti-SFRP5 monoclonal antibody subclone 24C18.3 (antibody, IgG2b, V domains shown)
VH: QVQLTQSGAELVRPGASVKLSCKASGYTFTDYYINWVKQRPGQGLEWIARIYPGSGNTYYNEKFKGKATLTAEKSSSTAYMQLSSLTSEDSAVYFCAAYSASAMDYWGQGTSVTVSS
VL: NVVLTQSPASLAVSLGQRATISCRASESVDSYGKSFMYWYQQKPGQPPKLLIYLANNLESGVPARFSGSGSRTDFTLTIDPVEADDAASYYCQQNNEDPWTFGGGTKLEIK
notes: also called mu24C18.3
